Data: patent publication US20220096649A1 (TALLAC THERAPEUTICS, published 2022)

T1: SIRP-α mouse BL6 (mouse (BL6), UniProt P97797 32-150, limits assumed)
T1 construct: Soluble analyte in SPR
T1 sequence (looked up): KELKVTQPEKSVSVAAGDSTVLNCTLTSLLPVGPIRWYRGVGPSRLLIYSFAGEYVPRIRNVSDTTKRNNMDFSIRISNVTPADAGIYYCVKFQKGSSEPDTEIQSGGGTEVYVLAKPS

T2: SIRP-α cynomolgus (cynomolgus, UniProt A0A2K5VYQ9 31-148)
T2 construct: Soluble analyte in SPR; also called cynomologous monkey SIRP-α
T2 sequence: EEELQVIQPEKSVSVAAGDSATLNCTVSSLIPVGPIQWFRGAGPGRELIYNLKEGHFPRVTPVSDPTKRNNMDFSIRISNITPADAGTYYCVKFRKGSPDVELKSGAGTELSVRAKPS


How the values were obtained:
Test in all cases: SPR, antibody on GLC chip, SIRP as analyte
Human SIRPγ = target: T3, Human SIRPγ (human, UniProt Q9P1W8 29-147, limits assumed)
T3 construct: Soluble analyte in SPR
Method: (§1) The running buffer was PBS pH 7.4 with 0.01% TWEEN-20 (PBST+). All analytes were used at their nominal concentrations as determined by A280 absorbance and using their molar calculated extinction coefficient. Analytes were injected in a “one-shot” kinetic mode as described (see, e.g., Bravman et al., Anal. Biochem. 2006, 358, 281-288).
(§2) For the method using a GLC chip, the analytes were injected and flowed over anti-SIRPα antibodies immobilized (˜1000 RUs) on GLC chips using Proteon Amine Coupling Kit. For the immobilization step, the GLC chip was activated with EDAC/Sulpho-NHS 1:1 (Biorad) diluted 1/100 for 300 s at 25 μL/min. Anti-SIRPα antibodies were diluted to 80 nM concentration in 10 mM sodium acetate buffer pH 4.5 and immobilized to the chip at 30 μL/min for 50 s. Chip was inactivated with ethanolamine for 300 s at 25 μL/min. The analytes (e.g., SIRP-α from different species, SIRP-β, SIRP-γ) were injected in a “one-shot” kinetic mode at nominal concentrations of 100, 33, 11, 3.7, 1.2, and 0 nM. Association times were monitored for 90 s at 100 uL/min, and dissociation times were monitored for 1200 s. The surfaces were regenerated with a 2:1 v/v blend of Pierce IgG elution buffer/4M NaCl.
(§3) Biosensor data were double-referenced by subtracting the interspot data (containing no immobilized protein) from the reaction spot data (immobilized protein) and then subtracting the response of a buffer “blank” analyte injection from that of an analyte injection. Double-referenced data were fit globally to a simple Langmuir model and the KD value was calculated from the ratio of the apparent kinetic rate constants (KD=kd/kₐ).

SIRP-α mouse BL6 = target: T1, SIRP-α mouse BL6
Method: as §1, §2, §3

SIRP-α cynomolgus = target: T2, SIRP-α cynomolgus
Method: as §1, §2, §3

SIRP-α human v2 = target: T4, SIRP-α human v2 (human, UniProt P78324 31-149, limits assumed)
T4 construct: Soluble analyte in SPR
Method: as §1, §2, §3

Human SIRPβ = target: T5, Human SIRPβ (human, UniProt O00241 30-148)
T5 construct: Soluble analyte in SPR
Method: as §1, §2, §3

T4 sequence (P78324 other isoform, or with tags, fused parts or gaps limits assumed): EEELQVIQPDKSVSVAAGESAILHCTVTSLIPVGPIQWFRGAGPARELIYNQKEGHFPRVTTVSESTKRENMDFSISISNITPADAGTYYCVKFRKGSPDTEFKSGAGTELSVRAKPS
T3 sequence (Q9P1W8 29-147 limits assumed): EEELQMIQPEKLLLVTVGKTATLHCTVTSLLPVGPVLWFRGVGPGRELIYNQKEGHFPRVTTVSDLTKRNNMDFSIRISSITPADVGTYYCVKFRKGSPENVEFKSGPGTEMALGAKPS
T5 sequence (O00241 30-148): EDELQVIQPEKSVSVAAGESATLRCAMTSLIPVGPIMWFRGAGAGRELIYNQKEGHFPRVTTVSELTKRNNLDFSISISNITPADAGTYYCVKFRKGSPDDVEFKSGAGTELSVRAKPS

Binder | Kd (Human SIRPγ) [nM] | binding result (SIRP-α mouse BL6) | Kd (SIRP-α cynomolgus) [nM] | Kd (SIRP-α human v2) [nM] | Kd (SIRP-α mouse BL6) [nM] | Kd (Human SIRPβ) [nM]
Anti-SIRP-α antibody 119, light chain Mut, heavy chain wt (antibody, V domains shown, Whole antibody; Light chain mut = F21L, R39K, E60A, T76S) VH: EVQLLESGGGVVQPGGSLRLSCAASGFSFSNFAMTWVRQAPGEGLEWVSTIGSGDTYYADSVKGRFTISRDNSKNTLYLQMNSLRAEDTAVYYCAKDSTVSWSGDFFDYWGLGTLVTVSS VL: EIVLTQSPATLSVSPGERATLSCRASQNVKNDLAWYQQKPGQAPRLLIYAARIRETGIPARFSGSGSGTEFTLTISSLQSEDFAVYYCQQYYDWPPFTFGGGTKVEIK | 0.23 | no binding (tested: 100 nM (highest analyte concentration)) | 0.14 | 0.086 | – | –
Anti-SIRP-α antibody 135, light chain wt, heavy chain wt (antibody, V domains shown, Whole antibody) VH: DVQLVESGGGVVRPGESLRLSCAASGFSFSIYAMSWVRQAPGEGLEWVSTIGADDTYYADSVKGRFTISRDNSKNTLYLQMNSLRAEDTAVYYCAKDSTVGWSGDFFDYWGLGTLVTVSS VL: EIVLTQSPATLSVSPGERVTFSCRASQNVRSDIAWYQQKPGQAPRLLIYAASSRDTGIPDRFSGSGSGTDFTLTISSLQSEDFGVYYCQQYYDWPPFTFGGGTKVEIK | 0.54 | no binding (tested: 100 nM (highest analyte concentration)) | 0.097 | 0.029 | – | –
Anti-SIRP-α antibody 119, light chain wt, heavy chain Mut (antibody, V domains shown, Whole antibody; Heavy chain mut = D1E, E43K, L112Q, M34V) VH: EVQLLESGGGVVQPGGSLRLSCAASGFSFSNFAVTWVRQAPGKGLEWVSTIGSGDTYYADSVKGRFTISRDNSKNTLYLQMNSLRAEDTAVYYCAKDSTVSWSGDFFDYWGQGTLVTVSS VL: EIVLTQSPATLSVSPGERATFSCRASQNVKNDLAWYQQRPGQAPRLLIYAARIRETGIPERFSGSGSGTEFTLTITSLQSEDFAVYYCQQYYDWPPFTFGGGTKVEIK | – | no binding (tested: 100 nM (highest analyte concentration)) | 0.16 | 0.069 | – | –
Anti-SIRP-α antibody 135, light chain wt, heavy chain Mut (antibody, V domains shown, Whole antibody; Heavy chain mut = D1E, R13Q, E16G, M34V, E43K, L112Q) VH: EVQLVESGGGVVQPGGSLRLSCAASGFSFSIYAVSWVRQAPGKGLEWVSTIGADDTYYADSVKGRFTISRDNSKNTLYLQMNSLRAEDTAVYYCAKDSTVGWSGDFFDYWGQGTLVTVSS VL: EIVLTQSPATLSVSPGERVTFSCRASQNVRSDIAWYQQKPGQAPRLLIYAASSRDTGIPDRFSGSGSGTDFTLTISSLQSEDFGVYYCQQYYDWPPFTFGGGTKVEIK | 0.78 | no binding (tested: 100 nM (highest analyte concentration)) | 0.13 | 0.02 | – | –
Anti-SIRP-α antibody 135, light chain Mut, heavy chain wt (antibody, V domains shown, Whole antibody; Light chain mut = F21L, D60A) VH: DVQLVESGGGVVRPGESLRLSCAASGFSFSIYAMSWVRQAPGEGLEWVSTIGADDTYYADSVKGRFTISRDNSKNTLYLQMNSLRAEDTAVYYCAKDSTVGWSGDFFDYWGLGTLVTVSS VL: EIVLTQSPATLSVSPGERVTLSCRASQNVRSDIAWYQQKPGQAPRLLIYAASSRDTGIPARFSGSGSGTDFTLTISSLQSEDFGVYYCQQYYDWPPFTFGGGTKVEIK | 0.52 | no binding (tested: 100 nM (highest analyte concentration)) | 0.1 | 0.027 | – | –
Anti-SIRP-α antibody 136, light chain wt, heavy chain Mut (antibody, V domains shown, Whole antibody; Heavy chain mut = D1E, R13Q, E16R, M34V, E43K, L111Q) VH: EVQLVESGGGVVQPGRSLRLSCAASGFTFSSYDVNWVRQAPGKGLEWVSLISGSGEIIYYADSVKGRFTISRDNSKNTLYLQMNSLRAEDTAVYYCAKENNRYRFFDDWGQGTLVTVSS VL: ETVLTQSPGTLTLSPGERATLTCRASQSVYTYLAWYQEKPGQAPRLLIYGASSRATGIPDRFSGSGSGTEFTLTISSLQSEDFAVYYCQQYYDRPPLTFGGGTKVEIK | 17 | – | – | 1.7 | 23 | 3.5
Anti-SIRP-α antibody 136, light chain Mut_I2T, heavy chain Mut_V34M (antibody, V domains shown, Whole antibody) VH: EVQLVESGGGVVQPGRSLRLSCAASGFTFSSYDMNWVRQAPGKGLEWVSLISGSGEIIYYADSVKGRFTISRDNSKNTLYLQMNSLRAEDTAVYYCAKENNRYRFFDDWGQGTLVTVSS VL: ETVLTQSPGTLSLSPGERATLSCRASQSVYTYLAWYQQKPGQAPRLLIYGASSRATGIPDRFSGSGSGTEFTLTISSLQSEDFAVYYCQQYYDRPPLTFGGGTKVEIK | 34 | – | 2.1 | 17 | 14 | 2.2
Anti-SIRP-α antibody 136, light chain Mut_Q38E, heavy chain Mut (antibody, V domains shown, Whole antibody) VH: EVQLVESGGGVVQPGRSLRLSCAASGFTFSSYDVNWVRQAPGKGLEWVSLISGSGEIIYYADSVKGRFTISRDNSKNTLYLQMNSLRAEDTAVYYCAKENNRYRFFDDWGQGTLVTVSS VL: EIVLTQSPGTLSLSPGERATLSCRASQSVYTYLAWYQEKPGQAPRLLIYGASSRATGIPDRFSGSGSGTEFTLTISSLQSEDFAVYYCQQYYDRPPLTFGGGTKVEIK | 19 | – | – | 13 | 33 | –
Anti-SIRP-α antibody 136, light chain wt, heavy chain wt (antibody, V domains shown, Whole antibody) VH: not shown VL: ETVLTQSPGTLTLSPGERATLTCRASQSVYTYLAWYQEKPGQAPRLLIYGASSRATGIPDRFSGSGSGTEFTLTISSLQSEDFAVYYCQQYYDRPPLTFGGGTKVEIK | 24 | – | – | 1.6 | 13 | 4.4
Anti-SIRP-α antibody 136, light chain Mut_S22T, heavy chain Mut (antibody, V domains shown, Whole antibody) VH: EVQLVESGGGVVQPGRSLRLSCAASGFTFSSYDVNWVRQAPGKGLEWVSLISGSGEIIYYADSVKGRFTISRDNSKNTLYLQMNSLRAEDTAVYYCAKENNRYRFFDDWGQGTLVTVSS VL: EIVLTQSPGTLSLSPGERATLTCRASQSVYTYLAWYQQKPGQAPRLLIYGASSRATGIPDRFSGSGSGTEFTLTISSLQSEDFAVYYCQQYYDRPPLTFGGGTKVEIK | 62 | – | – | 8.3 | 13 | –
Anti-SIRP-α antibody 136, light chain Mut_S12T, heavy chain Mut (antibody, V domains shown, Whole antibody) VH: EVQLVESGGGVVQPGRSLRLSCAASGFTFSSYDVNWVRQAPGKGLEWVSLISGSGEIIYYADSVKGRFTISRDNSKNTLYLQMNSLRAEDTAVYYCAKENNRYRFFDDWGQGTLVTVSS VL: EIVLTQSPGTLTLSPGERATLSCRASQSVYTYLAWYQQKPGQAPRLLIYGASSRATGIPDRFSGSGSGTEFTLTISSLQSEDFAVYYCQQYYDRPPLTFGGGTKVEIK | 67 | – | – | 11 | 16 | –
Anti-SIRP-α antibody 136, light chain Mut, heavy chain Mut (antibody, V domains shown, Whole antibody) VH: EVQLVESGGGVVQPGRSLRLSCAASGFTFSSYDVNWVRQAPGKGLEWVSLISGSGEIIYYADSVKGRFTISRDNSKNTLYLQMNSLRAEDTAVYYCAKENNRYRFFDDWGQGTLVTVSS VL: EIVLTQSPGTLSLSPGERATLSCRASQSVYTYLAWYQQKPGQAPRLLIYGASSRATGIPDRFSGSGSGTEFTLTISSLQSEDFAVYYCQQYYDRPPLTFGGGTKVEIK | 1.7 | – | – | 20 | 32 | –
Anti-SIRP-α antibody 136, light chain Mut_I2T, heavy chain Mut (antibody, V domains shown, Whole antibody) VH: EVQLVESGGGVVQPGRSLRLSCAASGFTFSSYDVNWVRQAPGKGLEWVSLISGSGEIIYYADSVKGRFTISRDNSKNTLYLQMNSLRAEDTAVYYCAKENNRYRFFDDWGQGTLVTVSS VL: ETVLTQSPGTLSLSPGERATLSCRASQSVYTYLAWYQQKPGQAPRLLIYGASSRATGIPDRFSGSGSGTEFTLTISSLQSEDFAVYYCQQYYDRPPLTFGGGTKVEIK | 40 | – | – | 1.8 | 15 | 3.2
Anti-SIRP-α antibody 136, light chain Mut, heavy chain wt (antibody, V domains shown, Whole antibody; Light chain mut = T2I, T12S, T22S, E38Q) VH: not shown VL: EIVLTQSPGTLSLSPGERATLSCRASQSVYTYLAWYQQKPGQAPRLLIYGASSRATGIPDRFSGSGSGTEFTLTISSLQSEDFAVYYCQQYYDRPPLTFGGGTKVEIK | 20 | – | – | 17 | 33 | –
Hum9/AB21_HC_Mutall (antibody, V domains shown, Whole antibody) VH: EVQLVESGGGVVQPGGSLRLSCAASGFTFSSNAMSWVRQAPGKGLEWVAGISAGGSDTYYPASVKGRFTISRDNSKNTLYLQMNSLRAEDTAVYYCARETWNHLFDYWGQGTLVTVSS VL: SYELTQPPSVSVSPGQTARITCSGGAYSSYYYAWYQQKPGQAPVLVIYSDDKRPSGIPERFSGSSSGTTVTLTISGVQAEDEADYYCGGYDQSSYTNPFGGGTKLTVL | 0.035 | – | 0.22 | 0.12 | – | 0.057
